Test results taken from paper PMC12664034, “The E3 ubiquitin ligase SPRYD3-MYCBP2(PAM) regulates mitotic cell fate and ubiquitination of USP11 to control spindle assembly” (The Journal of Biological Chemistry, 2025).

Target: T1, GST-USP11 (UniProt P51784 1-963)
T1 construct: USP11; pGEX4T1-GST-USP11; made by subcloning; the bought USP11 plasmid is Addgene 22566; also called recombinant USP11; source: E. coli Rosetta (DE3), purified (Glutathione Sepharose 4B)
Assay: pull-down; MBP pull-down: 10 μg MBP-SPRYD3 (or equimolar MBP) mixed with 10 μg GST-tagged protein in NP-40 buffer, 4 °C 1 h; Amylose resin 2 h at 4 °C; five washes; Western blot
Settings: both partners purified

T1 sequence (P51784 whole entry): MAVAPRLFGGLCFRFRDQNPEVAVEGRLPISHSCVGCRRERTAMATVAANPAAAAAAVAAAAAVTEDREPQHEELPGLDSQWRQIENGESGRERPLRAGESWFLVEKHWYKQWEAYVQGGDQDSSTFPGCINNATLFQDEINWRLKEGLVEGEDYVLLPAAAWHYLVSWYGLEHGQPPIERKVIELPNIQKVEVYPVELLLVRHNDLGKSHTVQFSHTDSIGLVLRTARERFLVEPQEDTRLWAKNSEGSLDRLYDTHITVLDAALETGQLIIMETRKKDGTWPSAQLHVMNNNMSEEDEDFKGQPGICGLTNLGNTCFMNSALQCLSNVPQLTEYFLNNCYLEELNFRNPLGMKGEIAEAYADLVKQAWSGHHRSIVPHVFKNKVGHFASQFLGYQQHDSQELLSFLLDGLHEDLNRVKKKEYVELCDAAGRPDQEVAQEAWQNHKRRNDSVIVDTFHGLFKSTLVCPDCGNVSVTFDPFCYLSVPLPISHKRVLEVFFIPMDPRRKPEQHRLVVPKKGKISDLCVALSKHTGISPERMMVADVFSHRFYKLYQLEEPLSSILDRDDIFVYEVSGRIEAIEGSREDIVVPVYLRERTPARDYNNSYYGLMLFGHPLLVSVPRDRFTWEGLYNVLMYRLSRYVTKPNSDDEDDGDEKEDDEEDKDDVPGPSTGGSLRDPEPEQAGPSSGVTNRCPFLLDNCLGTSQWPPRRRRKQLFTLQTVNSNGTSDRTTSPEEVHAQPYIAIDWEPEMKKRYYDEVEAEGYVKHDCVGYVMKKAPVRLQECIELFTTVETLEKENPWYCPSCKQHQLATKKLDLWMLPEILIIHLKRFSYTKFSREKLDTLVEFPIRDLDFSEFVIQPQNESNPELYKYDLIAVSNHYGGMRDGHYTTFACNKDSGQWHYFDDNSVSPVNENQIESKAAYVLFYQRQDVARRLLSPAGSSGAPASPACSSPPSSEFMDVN

- binding result: binds
B1: MBP-SPRYD3 (natural protein, UniProt Q8NCJ5 1-442, looked up)
chain: MRRTRRPRFVLMNKMDDLNLHYRFLNWRRRIREIREVRAFRYQERFKHILVDGDTLSYHGNSGEVGCYVASRPLTKDSNYFEVSIVDSGVRGTIAVGLVPQYYSLDHQPGWLPDSVAYHADDGKLYNGRAKGRQFGSKCNSGDRIGCGIEPVSFDVQTAQIFFTKNGKRVGSTIMPMSPDGLFPAVGMHSLGEEVRLHLNAELGREDDSVMMVDSYEDEWGRLHDVRVCGTLLEYLGKGKSIVDVGLAQARHPLSTRSHYFEVEIVDPGEKCYIALGLARKDYPKNRHPGWSRGSVAYHADDGKIFHGSGVGDPFGPRCYKGDIMGCGIMFPRDYILDSEGDSDDSCDTVILSPTARAVRNVRNVMYLHQEGEEEEEEEEEEEDGEEIEPEHEGRKVVVFFTRNGKIIGKKDAVVPSGGFFPTIGMLSCGEKVKVDLHPLSG
notes: SPRYD3; pMal-c2-MBP-SPRYD3; also called recombinant SPRYD3; source: E. coli Rosetta (DE3), purified (Amylose resin)
